Test results taken from patent US20200024330A1.

Tests used:
Assay in all cases: cell-based or functional assay
[1] = molecular target: HIV-1 Env of isolate MGRM-G-004 (HIV-1)
[2] = molecular target: HIV-1 Env of isolate MGRM-G-015 (HIV-1)
[3] = molecular target: HIV-1 Env of isolate MGRM-Chronic-B-010 (HIV-1)
[4] = molecular target: HIV-1 Env of isolate JRFL (HIV-1)
[5] = molecular target: HIV-1 Env of isolate MGRM-Chronic-B-011 (HIV-1)
[6] = molecular target: HIV-1 Env of isolate MGRM-Chronic-B-023 (HIV-1)
[7] = molecular target: HIV-1 Env of isolate MGRM-D-008 (HIV-1)
[8] = molecular target: HIV-1 Env of isolate MGRM-Chronic-B-024 (HIV-1)
[9] = molecular target: HIV-1 Env of isolate MGRM-G-001 (HIV-1)
[10] = molecular target: HIV-1 Env of isolate MGRM-Chronic-B-018 (HIV-1)
[11] = molecular target: aMLV envelope (negative control pseudovirus)
[12] = molecular target: HIV-1 Env of isolate MGRM-G-016 (HIV-1)
[13] = molecular target: HIV-1 Env of isolate MGRM-G-017 (HIV-1)
[14] = molecular target: HIV-1 Env of isolate MGRM-G-014 (HIV-1)
[15] = molecular target: HIV-1 Env of isolate MGRM-G-027 (HIV-1)
[16] = molecular target: HIV-1 Env of isolate MGRM-G-013 (HIV-1)
[17] = molecular target: HIV-1 Env of isolate 92BR020 (pseudovirus) (HIV-1 isolate 92BR020, subtype B)
[18] = molecular target: HIV-1 Env of isolate MGRM-G-019 (HIV-1)
[19] = molecular target: HIV-1 Env of isolate MGRM-Chronic-B-020 (HIV-1)
[20] = molecular target: HIV-1 Env of isolate MGRM-G-009 (HIV-1)
[21] = molecular target: HIV-1 Env of isolate MGRM-G-006 (HIV-1)
[22] = molecular target: HIV-1 Env of isolate MGRM-Chronic-B-017 (HIV-1)
[23] = molecular target: HIV-1 Env of isolate MGRM-G-011 (HIV-1)
[24] = molecular target: HIV-1 Env of isolate MGRM-Chronic-B-012 (HIV-1)
[25] = molecular target: HIV-1 Env of isolate MGRM-AG-009 (HIV-1)
[26] = molecular target: HIV-1 Env of isolate MGRM-AG-005 (HIV-1)
[27] = molecular target: HIV-1 Env of isolate MGRM-AG-006 (HIV-1)
[28] = molecular target: HIV-1 Env of isolate MGRM-AG-001 (HIV-1)
[29] = molecular target: HIV-1 Env of isolate MGRM-AE-007 (HIV-1)
[30] = molecular target: HIV-1 Env of isolate MGRM-AG-011 (HIV-1)
[31] = molecular target: HIV-1 Env of isolate MGRM-AG-008 (HIV-1)
[32] = molecular target: HIV-1 Env of isolate MGRM-AG-012 (HIV-1)
[33] = molecular target: HIV-1 Env of isolate MGRM-AG-003 (HIV-1)
[34] = molecular target: HIV-1 Env of isolate MGRM-AG-002 (HIV-1)
[35] = molecular target: HIV-1 Env of isolate MGRM-AG-013 (HIV-1)
[36] = molecular target: HIV-1 Env of isolate MGRM-AE-008 (HIV-1)
[37] = molecular target: HIV-1 Env of isolate CMU02 (HIV-1)
[38] = molecular target: HIV-1 92TH021 envelope glycoprotein (Env) on pseudovirus (HIV-1)
[39] = molecular target: HIV-1 NL43 envelope glycoprotein (Env) on pseudovirus (HIV-1)
[40] = molecular target: HIV-1 Env of isolate MGRM-AE-006 (HIV-1)
[41] = molecular target: HIV-1 92RW020 envelope glycoprotein (Env) on pseudovirus (HIV-1)
[42] = molecular target: HIV-1 Env of isolate MGRM-AE-004 (HIV-1)
[43] = molecular target: HIV-1 LAVIC_18 Env (HIV-1)
[44] = molecular target: HIV-1 Env of isolate MGRM-AE-005 (HIV-1)
[45] = molecular target: HIV-1 92UG024 envelope glycoprotein (Env) on pseudovirus (HIV-1)

5136_H01 (PGT-131) (antibody)
IC50, pseudovirus neutralization [1]: > 50 µg/mL | IC50, pseudovirus neutralization [2]: > 50 µg/mL | IC50 [3]: 0.016 µg/mL | IC50 [4]: 0.454 µg/mL | IC50 [5]: 6.47 µg/mL | IC50 [6]: > 50 µg/mL | IC50 [7]: > 50 µg/mL | IC50 [8]: > 50 µg/mL | IC50, pseudovirus neutralization [9]: 0.404 µg/mL | IC50 [10]: > 50 µg/mL | IC50, pseudovirus neutralization [11]: > 50 µg/mL | IC50, pseudovirus neutralization [12]: > 50 µg/mL | IC50, pseudovirus neutralization [13]: > 50 µg/mL | IC50, pseudovirus neutralization [14]: 4.31 µg/mL | IC50, pseudovirus neutralization [15]: 2.9 µg/mL | IC50, pseudovirus neutralization [16]: > 50 µg/mL | IC50 (µg/mL) neutralization [17]: 6.16 µg/mL | IC50, pseudovirus neutralization [18]: > 50 µg/mL | IC50 [19]: 0.053 µg/mL | IC50, pseudovirus neutralization [20]: > 50 µg/mL | IC50, pseudovirus neutralization [21]: > 50 µg/mL | IC50 [22]: > 50 µg/mL | IC50, pseudovirus neutralization [23]: > 50 µg/mL | IC50 [24]: 15.7 µg/mL

PGT-141 (4964_G22; 4993_K13) (antibody)
IC50 [25]: > 50 µg/mL | IC50 [26]: 0.497 µg/mL | neutralization IC50 [11]: > 50 µg/mL | IC50 [27]: > 50 µg/mL | IC50 [28]: 18 µg/mL | IC50 [29]: 33.1 µg/mL | IC50 [30]: 0.118 µg/mL | IC50 [31]: 19.2 µg/mL | IC50 [32]: > 50 µg/mL | IC50 [33]: > 50 µg/mL | IC50 [34]: 0.049 µg/mL | IC50 [35]: > 50 µg/mL | IC50 [36]: 0.101 µg/mL

PGT-121 (antibody)
IC50 (µg/mL), pseudovirus neutralization [37]: > 50 µg/mL

1496_C09 (PG9) (TCN-109) (antibody)
IC50 (µg/ml), pseudovirus neutralization [3]: 0.004 µg/mL | IC50 (ug/ml), neutralizing activity [38]: 0.103 µg/mL | IC50 neutralization [38]: 0.103 µg/mL | IC80, neutralization [38]: 0.448 µg/mL | IC90 (pseudovirus neutralization) [38]: 1.99 µg/mL | IC90, neutralization [38]: 1.07 µg/mL | IC95, neutralization [38]: 2.43 µg/mL | IC50 (µg/ml), pseudovirus neutralization [6]: 0.04 µg/mL | IC50 (µg/ml), pseudovirus neutralization [37]: 7.69 µg/mL | IC50 (ug/ml), neutralizing activity [39]: 0.687 µg/mL | IC50 neutralization [39]: 0.687 µg/mL | IC50 (µg/mL), pseudovirus neutralization [7]: 11.5 µg/mL | IC50 (µg/ml), pseudovirus neutralization [8]: 0.18 µg/mL | IC50 (µg/ml), pseudovirus neutralization [26]: 29.7 µg/mL | IC50 (µg/ml), pseudovirus neutralization [9]: 0.16 µg/mL | IC50 (µg/ml), pseudovirus neutralization [10]: 0.16 µg/mL | IC50 (µg/mL), pseudovirus neutralization [40]: 0.063 µg/mL | IC50 (µg/ml), pseudovirus neutralization [40]: 0.05 µg/mL | IC50 (µg/mL), pseudovirus neutralization [28]: 17.1 µg/mL | IC50 (µg/ml), pseudovirus neutralization [28]: 8.83 µg/mL | IC50 (µg/mL), pseudovirus neutralization [29]: 0.18 µg/mL | IC50 (µg/mL), pseudovirus neutralization [30]: 0.007 µg/mL | IC50 (µg/ml), pseudovirus neutralization [30]: 0.01 µg/mL | IC50 (ug/ml), neutralizing activity [41]: 0.161 µg/mL | IC50 neutralization [41]: 0.161 µg/mL | IC80, neutralization [41]: 1.04 µg/mL | IC90 (pseudovirus neutralization) [41]: 6.55 µg/mL | IC90, neutralization [41]: 3.4 µg/mL | IC50 (µg/mL), pseudovirus neutralization [32]: 22.8 µg/mL | IC50 (µg/ml), pseudovirus neutralization [32]: 1.37 µg/mL | IC50 (µg/ml), pseudovirus neutralization [33]: 9.71 µg/mL | IC50 (µg/mL), pseudovirus neutralization [42]: 0.009 µg/mL | IC50 (µg/ml), pseudovirus neutralization [42]: 0.01 µg/mL | IC50 (µg/mL), pseudovirus neutralization [34]: 0.076 µg/mL | IC50 (µg/ml), pseudovirus neutralization [34]: 0.04 µg/mL | IC50 [43]: 0.1 µg/mL | IC50 (µg/ml), pseudovirus neutralization [20]: 4.9 µg/mL | IC50 (µg/ml), pseudovirus neutralization [21]: 0.51 µg/mL | IC50 (µg/ml), pseudovirus neutralization [22]: 0.32 µg/mL | IC50 (µg/mL), pseudovirus neutralization [44]: 0.282 µg/mL | IC50 (µg/ml), pseudovirus neutralization [44]: 0.16 µg/mL | IC50 (µg/mL), pseudovirus neutralization [35]: 0.259 µg/mL | IC50 (µg/ml), pseudovirus neutralization [35]: 0.23 µg/mL | IC50 (µg/ml), pseudovirus neutralization [24]: 0.91 µg/mL | IC50 (µg/mL), pseudovirus neutralization [36]: 31.5 µg/mL | IC50 (µg/ml), pseudovirus neutralization [36]: 10.6 µg/mL | IC50 (ug/ml), neutralizing activity [45]: 1.91 µg/mL | IC50 neutralization [45]: 1.91 µg/mL

PGT-143 (4980_N08) (antibody)
IC50 [25]: > 50 µg/mL | IC50 [26]: 1.11 µg/mL | neutralization IC50 [11]: > 50 µg/mL | IC50 [27]: > 50 µg/mL | IC50 [28]: 18.9 µg/mL | IC50 [29]: 13.6 µg/mL | IC50 [30]: 0.156 µg/mL | IC50 [31]: 34 µg/mL | IC50 [32]: > 50 µg/mL | IC50 [33]: > 50 µg/mL | IC50 [34]: 0.076 µg/mL | IC50 [35]: > 50 µg/mL | IC50 [36]: 0.135 µg/mL
